Experimental findings from US8029979B2, “Method for determining the substrate specificity of an enzyme” (JPT Peptide Technologies GmbH, priority 2001, dated 2011) are described below.

The target of this experiment is T1, protein kinase A (Bos taurus, UniProt P00517).
T1 construct: purchased Sigma P26452 as printed
Briefly: Incubation of modified glass surface (960 spots) with protein kinase A (FIG. 7, Example 27). The following applies: aldehyde-functionalised glass, amino-oxy linkage, protein kinase A 10 U/mL, 30 min at 25° C. It counts as biochemical. The procedure: FIG. 7. A glass surface modified with the peptide Dpr(Aoa)-Leu-Arg-Arg-Ala-Ser-Leu-Gly-NH2 (see Example 22) was first pre-incubated for 10 minutes using 10 ml of 100 μM ATP solution in 50 mM of sodium phosphate buffer pH 7.5. […] After incubation for 30 min at 25° C. the phosphorylation of the corresponding peptides was detected using a FUJIFILM PhosphorImager (see Example 14). […] It is furthermore clear that the resolution of the PhosphorImager used here is sufficient to analyse more than 950 measurement points per biochip.
A glass surface modified with the peptide Dpr(Aoa)-Leu-Arg-Arg-Ala-Ser-Leu-Gly-NH2 (see Example 22) was incubated with 10 mL of 100 μM ATP in kinase buffer (50 mM tris-HCl, 150 mM NaCl, 30 mM MgCl2, 4 mM DTT, 2 mM EGTA, pH 7.5) for 10 minutes at room temperature. The glass surface was dried and a second unmodified glass surface of the same dimensions was then placed on the peptide-modified glass surface. […] Incubation was then carried out for 30 min at room temperature in an almost water-saturated atmosphere. […]
After drying the glass surface the quantity of radioactive phosphate incorporated in the glass-surface-bound peptides was determined using a PhosphorImager system (FLA-3000, FUJIFILM) (see FIG. 7).

For the substance “Dpr(Aoa)-Leu-Arg-Arg-Ala-Ser-Leu-Gly-NH2 ({Dpr(Aoa)}-LRRASLG-NH2)”, the “linking of the immobilised kinase substrate tolerated by protein kinase A” value is reported as “tolerated by the protein kinase A”.
